Where a chain is given by its changes, count along the chain named. Numbers in names are those of the source.

B1: BsMenD (MenD, SEPHCHC synthase, EC 2.2.1.9) (Bacillus subtilis subsp. subtilis str. 168; I489A) (protein)
chain: MTVNPITHYIGSFIDEFALSGITDAVVCPGSRSTPLAVLCAAHPDISVHVQIDERSAGFFALGLAKAKQRPVLLICTSGTAAANFYPAVVEAHYSRVPIIVLTADRPHELREVGAPQAINQHFLFGNFVKFFTDSALPEESPQMLRYIRTLASRAAGEAQKRPMGPVHVNVPLREPLMPDLSDEPFGRMRTGRHVSVKTGTQSVDRESLSDVAEMLAEAEKGMIVCGELHSDADKENIIALSKALQYPILADPLSNLRNGVHDKSTVIDAYDSFLKDDELKRKLRPDVVIRFGPMPVSKPVFLWLKDDPTIQQIVIDEDGGWRDPTQASAHMIHCNASVFAEEIMAGLTAATRSSEWLEKWQFVNGRFREHLQTISSEDVSFEGNLYRILQHLVPENSSLFVGNSMPIRDVDTFFEKQDRPFRIYSNRGANGIDGVVSSAMGVCEGTKAPVTLVIGDLSFYHDLNGLLAAKKLGIPLTVILVNNDGGGAFSFLPQASEKTHFEDLFGTPTGLDFKHAAALYGGTYSCPASWDEFKTAYAPQADKPGLHLIEIKTDRQSRVQLHRDMLNEAVREVKKQWEL
notes: full length (Thr2-Leu580 seen in crystal); N-terminal hexa-His tag with TEV site kept (24 extra residues); E. coli BL21(DE3); dimer peak used (tetramer in crystal); active site formed by two subunits
B2: BsMenD (MenD, SEPHCHC synthase, EC 2.2.1.9) (Bacillus subtilis subsp. subtilis str. 168) (protein)
chain: B1 chain with A489I
notes: as for B1
B3: BsMenD (MenD, SEPHCHC synthase, EC 2.2.1.9) (Bacillus subtilis subsp. subtilis str. 168; R409A) (protein)
chain: B1 chain with R409A, A489I
notes: as for B1
B4: BsMenD (MenD, SEPHCHC synthase, EC 2.2.1.9) (Bacillus subtilis subsp. subtilis str. 168; L493A) (protein)
chain: B1 chain with A489I, L493A
notes: as for B1
B5: BsMenD (MenD, SEPHCHC synthase, EC 2.2.1.9) (Bacillus subtilis subsp. subtilis str. 168; R32A) (protein)
chain: B1 chain with R32A, A489I
notes: as for B1
B6: BsMenD (MenD, SEPHCHC synthase, EC 2.2.1.9) (Bacillus subtilis subsp. subtilis str. 168; K299A) (protein)
chain: B1 chain with K299A, A489I
notes: as for B1
B7: BsMenD (MenD, SEPHCHC synthase, EC 2.2.1.9) (Bacillus subtilis subsp. subtilis str. 168; R106A) (protein)
chain: B1 chain with R106A, A489I
notes: as for B1
B8: BsMenD (MenD, SEPHCHC synthase, EC 2.2.1.9) (Bacillus subtilis subsp. subtilis str. 168; F490A) (protein)
chain: B1 chain with A489I, F490A
notes: as for B1
B9: BsMenD (MenD, SEPHCHC synthase, EC 2.2.1.9) (Bacillus subtilis subsp. subtilis str. 168; R428A) (protein)
chain: B1 chain with R428A, A489I
notes: as for B1

Substrate in one data set: C=C(O[C@H]1C=CC=C(C(=O)O)[C@@H]1O)C(=O)O
Put plainly: purified protein. It counts as biochemical, Bacillus subtilis. Conditions: 50 mM Tris-HCl pH 7.8, 20 mM NaCl, 5 mM MgSO4, 23 °C, co-substrate α-ketoglutarate.
What is called Km is the concentration of substrate that gives half-maximal velocity. Usually kcat stands for the number of substrate molecules converted per active site and unit of time at saturation. The kcat/Km is the second-order rate constant that governs catalysis at low substrate concentration. On to B1, for which the Km was determined as 27 ± 1 µM, the kcat was 0.095 ± 0.00333 s⁻¹ and the kcat/Km is 3500 ± 167 M⁻¹ s⁻¹.

B2: the Km worked out at 1.1 ± 0.2 µM, the kcat is 0.317 ± 0.0167 s⁻¹ and the kcat/Km is 317000 ± 50000 M⁻¹ s⁻¹.

On to B3, for which the Km turned out to be 8.5 ± 1.2 µM, the kcat stood at 0.0233 ± 0.00167 s⁻¹ and the kcat/Km was 2670 ± 333 M⁻¹ s⁻¹.

Take B4: the Km worked out at 39 ± 1 µM, the kcat came out at 0.317 ± 0.0167 s⁻¹ and the kcat/Km amounted to 8170 ± 500 M⁻¹ s⁻¹.

For the protein B5, the Km came out at 49 ± 7 µM, the kcat was found to be 0.183 ± 0.0167 s⁻¹ and the kcat/Km was 3670 ± 167 M⁻¹ s⁻¹.

For B6, the Km was 8.4 ± 1.2 µM, the kcat is 0.417 ± 0.0333 s⁻¹ and the kcat/Km turned out to be 50000 ± 5000 M⁻¹ s⁻¹.

As for B7, the Km was found to be 41 ± 4 µM, the kcat amounted to 0.0117 ± 0.00333 s⁻¹ and the kcat/Km stood at 300 ± 167 M⁻¹ s⁻¹.

Substrate in the next data set: O=C(O)CCC(=O)C(=O)O
The experiment in a line: purified protein. Conditions: 50 mM Tris-HCl pH 7.8, 20 mM NaCl, 5 mM MgSO4, 23 °C, co-substrate isochorismate. It counts as biochemical, Bacillus subtilis.
For B1, the Km worked out at 346 ± 10 µM.

With B8, the Km worked out at 274 ± 12 µM, the kcat came out at 0.0183 ± 0.00167 s⁻¹ and the kcat/Km is 65 ± 3.33 M⁻¹ s⁻¹.

Regarding B2, the Km worked out at 22 ± 5 µM, the catalytic constant (kcat) worked out at 0.233 ± 0.0333 s⁻¹ and the kcat/Km amounted to 10700 ± 5000 M⁻¹ s⁻¹.

Regarding B3, the Km came out at 159 ± 18 µM.

As to B9, the Km stood at 514 ± 54 µM, the kcat worked out at 0.0567 ± 0.00333 s⁻¹ and the kcat/Km turned out to be 117 ± 16.7 M⁻¹ s⁻¹.

For the origin of these results see PMC2914249, “Structure and Reactivity of Bacillus subtilis MenD Catalyzing the First Committed Step in Menaquinone Biosynthesis” (Journal of Molecular Biology, 2010).
